Here are results for two substances from publication PMC5847313.

Assay [1] has as its target P (Human respiratory syncytial virus) (UniProt P03421). The following applies: cited from earlier work.
Assay [2] shares this target. Nature of the assay: ITC. The following applies: cited from earlier work.
Assay [3] deals with RSV P D110A (untagged, from pP) (human respiratory syncytial virus, strain Long) (UniProt P12579).
Assay [4] deals with RSV P D95A (untagged, from pP) (human respiratory syncytial virus, strain Long) (UniProt P12579).

pKd: −log10 of the molar value. Read-outs that look alike come from different tables or passages of the source.

By pKd is commonly meant the negative decadic logarithm of the Kd, by convention in mol/L. Consider M2-1 (from UniProt P04545), for which the results for the pKd in assay [1] and in assay [2] were 8.09 and 5.52, respectively.

With “RSV M2-1 expressed in BSRT7/5 cells, unphosphorylated form (from UniProt P04545 1-194) (natural protein)”, the minigenome activity (firefly luciferase, pM/Luc) in BSRT7/5 cells in assay [3] and in assay [4] was 50 % decrease in each case.
